Common to all, as to experiment: SPR (Biacore), antibody captured on chip, FcgR extracellular domain as analyte
The target in assay [1] is T1, FcgRIa (human, UniProt P12314 16-292).
T1 construct: extracellular domain; Expressed in FreeStyle293 cells and purified; used as analyte in Biacore; also called FcγRIa; FcγRI; not shown: His tag attached to the C terminus

Assay [2] concerns the target T2, FcgRIIa R (human, UniProt P12318 34-217).
T2 construct: extracellular domain; also called FcγRIIa R; FcγRIIa type R; not shown: His tag attached to the C terminus
T2 sequence (looked up): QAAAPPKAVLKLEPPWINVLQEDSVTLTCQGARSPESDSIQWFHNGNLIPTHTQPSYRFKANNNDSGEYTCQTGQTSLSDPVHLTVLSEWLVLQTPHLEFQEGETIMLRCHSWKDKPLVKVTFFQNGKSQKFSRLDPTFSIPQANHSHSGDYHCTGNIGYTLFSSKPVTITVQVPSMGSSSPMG

The target in assay [3] is T3, FcgRIIa H (human, UniProt P12318 34-217).
T3 construct: extracellular domain; also called FcγRIIa H; FcγRIIa type H; not shown: His tag attached to the C terminus
T3 sequence (looked up): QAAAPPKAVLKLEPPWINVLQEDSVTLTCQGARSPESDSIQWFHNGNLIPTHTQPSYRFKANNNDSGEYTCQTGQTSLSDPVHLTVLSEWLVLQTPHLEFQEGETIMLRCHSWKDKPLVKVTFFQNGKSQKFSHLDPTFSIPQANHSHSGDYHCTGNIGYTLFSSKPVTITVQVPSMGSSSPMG

The target of assay [4] is T4, FcgRIIb (human, UniProt P31994 43-217).
T4 construct: extracellular domain; Expressed in FreeStyle293 cells and purified; used as analyte in Biacore; also called FcγRIIb; CD32B; not shown: His tag attached to the C terminus
T4 sequence (looked up): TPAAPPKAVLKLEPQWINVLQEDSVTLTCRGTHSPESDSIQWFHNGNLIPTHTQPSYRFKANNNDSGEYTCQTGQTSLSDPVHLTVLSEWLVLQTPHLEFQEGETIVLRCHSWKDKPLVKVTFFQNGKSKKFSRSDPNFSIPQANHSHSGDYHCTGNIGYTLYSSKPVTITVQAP

Assay [5] has as its target T5, FcgRIIIa F (human, UniProt P08637 17-208).
T5 construct: extracellular domain; also called FcγRIIIa F; not shown: His tag attached to the C terminus

In assay [6] the target is T6, FcgRIIIa V (human, UniProt P08637 17-208).
T6 construct: extracellular domain; also called FcγRIIIa V; not shown: His tag attached to the C terminus
T6 sequence (P08637 17-208 F176V limits assumed): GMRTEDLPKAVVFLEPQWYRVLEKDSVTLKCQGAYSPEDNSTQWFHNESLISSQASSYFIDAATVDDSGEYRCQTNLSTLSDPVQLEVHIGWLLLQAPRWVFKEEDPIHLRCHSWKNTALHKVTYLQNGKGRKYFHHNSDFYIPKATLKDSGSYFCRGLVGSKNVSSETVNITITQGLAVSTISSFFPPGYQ

The target in assay [7] is T1, FcgRIa. The source holds these as a separate data set.
In assay [8] the target is T2, FcgRIIa R. This is another data set of the same source.
Assay [9] addresses T3, FcgRIIa H. This is another data set of the same source.
The target of assay [10] is T4, FcgRIIb. The source holds these as a separate data set.
Assay [11] concerns the target T5, FcgRIIIa F. The source holds these as a separate data set.
Assay [12] concerns the target T6, FcgRIIIa V. The source holds these as a separate data set.
In assay [13] the target is T4, FcgRIIb. The source holds these as a separate data set.
Assay [14] addresses T5, FcgRIIIa F. This is another data set of the same source.
For assay [15], the target named is T6, FcgRIIIa V. The source holds these as a separate data set.

Experimental findings from patent US20180155451A1 (published 2018) are described below.

Like-named read-outs stand apart in the source and are kept apart here.

T5 sequence (P08637 17-208): as the sequence (P08637 17-208 F176V limits assumed) above, with V160F counted along it
T1 sequence (P12314 16-292): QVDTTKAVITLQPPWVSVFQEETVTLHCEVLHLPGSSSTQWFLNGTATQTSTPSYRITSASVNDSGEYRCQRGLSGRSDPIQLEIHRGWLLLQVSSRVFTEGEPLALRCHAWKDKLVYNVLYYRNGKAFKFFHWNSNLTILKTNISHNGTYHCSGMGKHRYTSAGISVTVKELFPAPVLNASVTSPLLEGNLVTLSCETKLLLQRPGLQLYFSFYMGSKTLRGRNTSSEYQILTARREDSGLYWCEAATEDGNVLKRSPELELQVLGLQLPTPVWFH

B1: H240-afucosyl_G1d/L73-k0 (antibody, human IgG1, kappa)
heavy: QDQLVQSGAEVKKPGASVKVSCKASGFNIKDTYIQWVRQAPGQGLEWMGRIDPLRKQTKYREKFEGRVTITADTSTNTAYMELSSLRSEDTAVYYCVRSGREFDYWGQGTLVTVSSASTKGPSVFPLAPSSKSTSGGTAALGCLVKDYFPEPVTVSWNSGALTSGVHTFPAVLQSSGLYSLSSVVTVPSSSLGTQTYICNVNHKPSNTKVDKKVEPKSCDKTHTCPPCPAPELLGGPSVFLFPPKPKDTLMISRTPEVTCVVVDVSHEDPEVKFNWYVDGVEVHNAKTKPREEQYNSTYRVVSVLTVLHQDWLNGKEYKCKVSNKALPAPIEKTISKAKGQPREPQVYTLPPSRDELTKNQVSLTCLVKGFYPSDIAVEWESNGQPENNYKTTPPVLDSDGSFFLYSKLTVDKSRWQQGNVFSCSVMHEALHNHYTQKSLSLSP
light: DIQMTQSPSSLSASVGDRVTITCRASQDIHKYIAWYQQKPGQAPRLLIQYTSTLQPGVPSRFSGSGSGTDYTFTISSLQPEDIATYYCLQYEQLRTFGGGTKVEIKRTVAAPSVFIFPPSDEQLKSGTASVVCLLNNFYPREAKVQWKVDNALQSGNSQESVTEQDSKDSTYSLSSTLTLSKADYEKHKVYACEVTHQGLSSPVTKSFNRGEC
modifications: fucose removed from the sugar chain (afucosylated); amino acid sequence same as H240-G1d
notes: Anti-EREG IgG1 obtained by afucosylating H240-G1d/L73-k0; also called afucosylated antibody
Turning to B1, the equilibrium dissociation constant (Kd) (commonly the constant that tells how readily two partners part at equilibrium) in the assay with FcgRIa [1] came to 0.43 nM; in the assay with FcgRIIa R [2], 490 nM; with FcgRIIa H [3], 780 nM; with FcgRIIb [4] it was 2600 nM; in the assay with FcgRIIIa F [5], 79 nM; with FcgRIIIa V [6], 6.9 nM. Moreover, the Kd was 0.43 nM with FcgRIa [7]; 490 nM in the assay with FcgRIIa R [8]; 780 nM in the assay with FcgRIIa H [9]; 2600 nM with FcgRIIb [10]; 79 nM in the assay with FcgRIIIa F [11]; 6.9 nM with FcgRIIIa V [12]. For the same molecule, the Kd with FcgRIIb [13] was 2600 nM; with FcgRIIIa F [14], 79 nM; with FcgRIIIa V [15], 6.9 nM.
